Drawing on PMC9619061, this text covers stoichiometry N for three substances.

Experiment [1] has as its target Coproheme decarboxylase from Geobacillus stearothermophilus (HemQ), His-tag completely cleaved (Geobacillus stearothermophilus). Description: SEC; Superdex 200 10/300, 1 ml/min, 50 mM HEPES pH 7.5, 100 mM NaCl; elution volume compared with the mass of a pentamer. In general terms: In gel filtration, larger molecules generally elute earlier.
For experiment [2] the target is unchanged. Description: cryo-EM structure; single particle reconstruction, purified protein on glow-discharged gold Quantifoil R 1.2/1.3 grids, 50 mM HEPES pH 7.5, 100 mM NaCl; C5 and C1 symmetry.
Experiment [3] deals with Coproheme decarboxylase from Geobacillus stearothermophilus (HemQ), His-tag partially cleaved (Geobacillus stearothermophilus). Description: SEC; Superdex 200 10/300, 1 ml/min, 50 mM HEPES pH 7.5, 100 mM NaCl; elution volume compared with the mass of a pentamer.
For experiment [4] the target is unchanged. In words: cryo-EM structure; single particle reconstruction, purified protein on glow-discharged gold Quantifoil R 1.2/1.3 grids, 50 mM HEPES pH 7.5, 100 mM NaCl; C5 and C1 symmetry.
For experiment [5], the target named is Coproheme decarboxylase from Geobacillus stearothermophilus (HemQ), His-tag present in all copies (Geobacillus stearothermophilus). Description: SEC; Superdex 200 10/300, 1 ml/min, 50 mM HEPES pH 7.5, 100 mM NaCl; elution volume compared with the mass of a pentamer.
Experiment [6] shares this target. In words: cryo-EM structure; single particle reconstruction, purified protein on glow-discharged gold Quantifoil R 1.2/1.3 grids, 50 mM HEPES pH 7.5, 100 mM NaCl; C5 and C1 symmetry.

Regarding “Coproheme decarboxylase from Geobacillus stearothermophilus (HemQ), His-tag completely cleaved (enzyme)”, the stoichiometry N in experiment [1] and in experiment [2] was 5 each time.

“Coproheme decarboxylase from Geobacillus stearothermophilus (HemQ), His-tag partially cleaved (enzyme)”: the stoichiometry N in experiment [3] and in experiment [4] was 5 in each case.

Take “Coproheme decarboxylase from Geobacillus stearothermophilus (HemQ), His-tag present in all copies (enzyme)”: the stoichiometry N in experiment [5] and in experiment [6] was 5 in each case.

What is called stoichiometry N is the number of molecules, sites or subunits per partner or assembly.
